Assay results as given in US20060263849A1, “Glucagon-like peptide-1 analogs” (priority 2000, published 2006).
Values joined by “and” are separate entries in the source; they are usually repeats but may differ in a detail not shown here. Equal entries are not always repeated. Where no end group is shown, it is not given here.

Experiments:
GLP-1 receptor = GLP-1 receptor activation, in vitro assays; format: cell-based; conditions: activity relative to the activity of GLP-1(7-37)OH
Description: “Insulinotropic activity” refers to stimulating insulin secretion in response to elevated glucose levels, thereby causing glucose uptake by cells and decreased serum glucose levels. Insulinotropic activity can be assessed by methods known in the art, including using in vivo experiments and in vitro assays that measure GLP-1 receptor binding activity or receptor activation, e.g., assays employing pancreatic islet cells or insulinoma cells, as described in EP 619,322 to Gelfand, et al., and U.S. Pat. No. 5,120,712, respectively. The entire teachings of these references are incorporated herein by reference.
The ability of the GLP-1 compounds of the present invention to activate the GLP-1 receptor was assessed using in vitro assays such as those described in EP 619,322 to Gelfand, et al., and U.S. Pat. No. 5,120,712, respectively. The entire teachings of these references are incorporated herein by reference.

[1] = GLP Aggregation Assay (time to onset of aggregation, turbidity at 350 nm); format: physicochemical; conditions: for Aggregation Time: 0.3 mg/mL in 10 mM citrate, 10 mM phosphate, 150 mM NaCl, pH 7.4 to 7.5, 37° C., stirred, turbidity at 350 nm
Method: GLP peptides of this invention were analyzed with respect to their potential to aggregate in solution. In general, peptides in solution were stirred at elevated temperature in a suitable buffer while recording turbidity at 350 nm as a function of time. Time to the onset of aggregation was measured to quantify the potential of a given GLP molecule to aggregate under these stressed conditions.
A GLP-1 compound was first dissolved under alkaline conditions (pH 10.5) for 30 minutes to dissolve any pre-aggregated material. The solution was then adjusted to pH 7.4 and filtered. Specifically, 4 mg of a lyophilized GLP-1 compound was dissolved in 3 ml of 10 mM phosphate/10 mM citrate. The pH was adjusted to 10.0-10.5 and held for 30 minutes. The solution was adjusted with HCl to pH 7.4 and filtered through a suitable filter, for example a Millex GV syringe filter (Millipore Corporation, Bedford, Mass.). This solution was then diluted to a final sample containing 0.3 mg/mL protein in 10 mM citrate, 10 mM phosphate, 150 mM NaCl, and adjusted to pH 7.4 to 7.5. […] Every five minutes the turbidity of the solution was measured at 350 nm on an AVIV Model 14DS UV-VIS spectrophotometer (Lakewood, N.J.). For 30 seconds prior to and during the measurement the solution was stirred using a magnetic stir bar from Starna Cells, Inc. (Atascadero, Calif.). An increase in OD at 350 nm indicates aggregation of the GLP-peptide. The time to aggregation was approximated by the intersection of linear fits to the pre-growth and growth phase according to method of Drake (Arvinte T, Cudd A, and Drake A F. (1993) J. Bio. Chem. 268, 6415-6422).
The cuvette was cleaned between experiments with a caustic soap solution (e.g., Contrad-70).
The results for a number of GLP-1 compounds of the present invention are reported in Table 1 as the time in hours required for the compound to aggregate.

[2] = Zinc precipitation of GLP-1 compounds (A280 of supernatant); format: physicochemical; conditions: HEPES pH 7.4, 22° C., 18 hours
Method: Individual GLP-1 compounds were prepared as described in Examples 1 or 2. 3 mg of an individual lyophilized GLP molecule was dissolved in 3 ml 0.1 M HEPES buffer pH 10.5. The pH of the resulting solution was then adjusted to between 10.0 and 10.5 with 0.2 N NaOH. The solution was stirred at ambient temperature for 30 minutes and the solution was then adjusted to a pH of 7.4 with 0.2 N HCl. The solution was filtered through an appropriate syringe filter, for example a Millex GV syringe filter (Millipore Corporation, Bedford, Mass.), and the concentration of the GLP-1 compound was estimated by measuring the absorption at 280 nm in a spectrophotometer, for example a Beckman DU640. The protein concentration was then adjusted to 200 μM in HEPES pH 7.4.
The filtered GLP-1 solutions (100 μl) were diluted with 100 μl of 0.1 M HEPES pH 7.4 containing various levels of zinc chloride in an ELISA plate, (e.g. Falcon Microtest™ 96) resulting in 200 μl of solution containing various levels of zinc chloride and 100 μM GLP-1 compounds. These solutions were incubated at ambient temperature (22° C.) for 18 hours and then centrifuged, for example, in a Jouan CR412 centrifuge with microplate adapters. 150 μl of the supernatants after centrifugation were then transferred to a UV-readable ELISA microtiter plate (e.g. Costar UV plate) and the OD at 280 was determined in a microplate reader (e.g. Molecular Devices SPECTRAmax PLUS, SOFTmax PRO). A280 values are the result of two independent determinations.

[3] = Zn/GLP-1 molar ratio 0, 100 μM GLP-1 compound
[4] = Zn/GLP-1 molar ratio 0.3, 100 μM GLP-1 compound
[5] = Zn/GLP-1 molar ratio 0.5, 100 μM GLP-1 compound
[6] = Zn/GLP-1 molar ratio 0.7, 100 μM GLP-1 compound
[7] = Zn/GLP-1 molar ratio 1, 100 μM GLP-1 compound
[8] = Zn/GLP-1 molar ratio 2, 100 μM GLP-1 compound
[9] = Zn/GLP-1 molar ratio 3, 100 μM GLP-1 compound
[10] = Zn/GLP-1 molar ratio 5, 100 μM GLP-1 compound

Substance	GLP-1 Receptor Activation (GLP-1 receptor)	Aggregation Time [1]	other results
Val^8-Lys^33-Asn^34-GLP-1(7-37)OH	0.09	>48 h	
Val^8-Phe^22-GLP-1(7-37)OH			A280 [2, 3]: 0.31; A280 [2, 4]: 0.1485; A280 [2, 5]: 0.1165; A280 [2, 6]: 0.1015; A280 [2, 7]: 0.1265; A280 [2, 8]: 0.092; A280 [2, 9]: 0.061; A280 [2, 10]: 0.00795
Val^8-GLP-1(7-37)OH [reference compound]		0.9 ± 0.2 h	A280 [2, 3]: 0.3; A280 [2, 4]: 0.27; A280 [2, 5]: 0.26; A280 [2, 6]: 0.124; A280 [2, 7]: 0.06; A280 [2, 8]: 0.025; A280 [2, 9]: 0.021; A280 [2, 10]: 0.019
Val^8-Gly^34-Lys^35-GLP-1(7-37)OH (HVEGTFTSDVSSYLEGQAAKEFIAWLVGKRG)	0.34	27 h	
Val^8-His^37-GLP-1(7-37)OH (HVEGTFTSDVSSYLEGQAAKEFIAWLVKGRH)	0.33	>40 h	
Val^8-Leu^16-Glu^26-GLP-1(7-37)OH (HVEGTFTSDLSSYLEGQAAEEFIAWLVKGRG)	0.23	>20 h	
Val^8-Glu^16-GLP-1(7-37)OH (HVEGTFTSDESSYLEGQAAKEFIAWLVKGRG)	0.047	12 h	
Val^8-Ala^11-GLP-1(7-37)OH (HVEGAFTSDVSSYLEGQAAKEFIAWLVKGRG)	0.021	10 h	
Val^8-Gly^33-GLP-1(7-37)OH (HVEGTFTSDVSSYLEGQAAKEFIAWLGKGRG)	0.01	9 h	
Val^8-Lys^22-Glu^30-GLP-1(7-37)OH (HVEGTFTSDVSSYLEKQAAKEFIEWLVKGRG)	0.37	4 h	
Val^8-Gly^36-Pro^37-GLP-1(7-37)NH2 (HVEGTFTSDVSSYLEGQAAKEFIAWLVKGGP-NH2)	0.53	2 h	
Gly^8-His^11-GLP-1(7-37)OH (HGEGHFTSDVSSYLEGQAAKEFIAWLVKGRG)	0.282		Aggregation Time in Hours ([1]; *Aggregation time determined at 30° C.): 9* Hours
Val^8-His^22-GLP-1(7-37)OH (HVEGTFTSDVSSYLEHQAAKEFIAWLVKGRG)	0.14	>75 h	
Val^8-Glu^22-Lys^23-GLP-1(7-37)OH (HVEGTFTSDVSSYLEEKAAKEFIAWLVKGRG)	1.43	>65 h	
Val^8-Glu^36-GLP-1(7-37)OH (HVEGTFTSDVSSYLEGQAAKEFIAWLVKGEG)	0.11	>45 h	
Val^8-His^36-GLP-1(7-37)OH (HVEGTFTSDVSSYLEGQAAKEFIAWLVKGHG)	0.22	8 h	
Val^8-His^27-GLP-1(7-37)OH (HVEGTFTSDVSSYLEGQAAKHFIAWLVKGRG)	0.37	10 h	
Val^8-Glu^23-GLP-1(7-36)OH (HVEGTFTSDVSSYLEGEAAKEFIAWLVKGR)	0.28	65 h	

Substance	GLP-1 Receptor Activation (GLP-1 receptor)	Aggregation Time [1]	other results
Val^8-Tyr^12-GLP-1(7-37)OH (HVEGTYTSDVSSYLEGQAAKEFIAWLVKGRG)	0.81	6 h	
Val^8-Asp^30-GLP-1(7-37)OH (HVEGTFTSDVSSYLEGQAAKEFIDWLVKGRG)	0.15	>45 h	
Gly^8-GLP-1(7-37)OH (HGEGTFTSDVSSYLEGQAAKEFIAWLVKGRG-OH; UniProt P01275 98-128, looked up, variant A8G) [reference compound]			A280 [2, 3]: 0.32; A280 [2, 4]: 0.166; A280 [2, 5]: 0.151; A280 [2, 6]: 0.156; A280 [2, 7]: 0.119; A280 [2, 8]: 0.089; A280 [2, 9]: 0.085; A280 [2, 10]: 0.078
Val^8-Lys^11-GLP-1(7-37)OH (HVEGKFTSDVSSYLEGQAAKEFIAWLVKGRG)	0.001	13 h	
Ala^8-Glu^26-GLP-1(7-37)OH (HAEGTFTSDVSSYLEGQAAEEFIAWLVKGRG)	0.7	>24 h	
Val^8-Lys^23-GLP-1(7-37)OH (HVEGTFTSDVSSYLEGKAAKEFIAWLVKGRG)	0.18	>45 h	
Val^8-His^35-GLP-1(7-37)OH (HVEGTFTSDVSSYLEGQAAKEFIAWLVKHRG)	0.41	> 45 h and 30 h	
Val^8-His^30-GLP-1(7-37)OH (HVEGTFTSDVSSYLEGQAAKEFIHWLVKGRG)	0.19	13 h	
Val^8-Pro^35-GLP-1(7-37)OH (HVEGTFTSDVSSYLEGQAAKEFIAWLVKPRG)	0.094	14 h	
Val^8-Lys^22-Glu^23-GLP-1(7-37)OH (HVEGTFTSDVSSYLEKEAAKEFIAWLVKGRH)	0.35	>30 h	
Val^8-Ser^30-GLP-1(7-37)OH (HVEGTFTSDVSSYLEGQAAKEFISWLVKGRG)	0.19	8 h	
Val^8-Ala^33-GLP-1(7-37)OH (HVEGTFTSDVSSYLEGQAAKEFIAWLAKGRG)	0.1	20 h	
Ala^8-His^26-GLP-1(7-37)OH (HAEGTFTSDVSSYLEGQAAHEFIAWLVKGRG)	0.8	>24 h	
Val^8-Ala^27-GLP-1(7-37)OH (HVEGTFTSDVSSYLEGQAAKAFIAWLVKGRG)		2 h	
Gly^8-Glu^22-GLP-1(7-37)OH		19 h	
GLP-1(7-37)OH [reference compound]		1 h	A280 [2, 3]: 0.337; A280 [2, 4]: 0.318; A280 [2, 5]: 0.329; A280 [2, 6]: 0.253; A280 [2, 7]: 0.148; A280 [2, 8]: 0.092; A280 [2, 9]: 0.081; A280 [2, 10]: 0.074
Val^8-Glu^22-Ala^27-GLP-1(7-37)OH (HVEGTFTSDVSSYLEEQAAKAFIAWLVKGRH)		>45 h	
